Drawing on PMC10099132, “Sequence and Structural Motifs Controlling the Broad Substrate Specificity of the Mycobacterial Hormone-Sensitive Lipase LipN” (ACS Omega, 2023), this text covers Km, kcat and kcat/Km for one protein.

Experiment in all cases: purified protein, by the assay type
Parameters in all cases: fluorogenic ester hydrolysis, fluorescein release, Michaelis-Menten fit of initial rates

Substrate in series [1]: CCCC(=O)OCOc1ccc2c(c1)Oc1cc(OCOC(=O)CCC)ccc1C21OC(=O)c2ccccc21
How it is done: (§1) The enzyme kinetic activity of LipN was assayed via the hydrolysis of the fluorogenic substrates (Figure 1) in accordance with past kinetic analysis of mycobacterial serine hydrolases.[37],[38],[40],[66],[67] Kinetic assays were run in triplicate on black 96-well plates in a Synergy H1 Hybrid Reader (BioTek). Fluorogenic ester substrates (10 mM in DMSO) were diluted to a starting concentration of 100 μM in PBS containing acetylated BSA (Sigma; 0.1 mg/mL). Eight serial dilutions (1:1; 120 μL into 240 μL total volume) of each substrate were made using PBS–BSA. Fluorogenic substrate dilutions (95 μL) were then transferred to opaque 96-well microplate (Corning, Lowell, MA). Reactions were initiated by quickly adding enzyme (5 μL, 3.0 nM final concentration) to each assay well, mixed, and the fluorescence counts measured every 26–30 s for 4.5 min with a BioTek H1 Synergy multimode plate reader (Biotek Instruments; Winooski, VT) at ambient temperature. The instrument measured relative fluorescence through excitation at λ = 485 nm and emission at λ = 520 nm. The fluorescence change was converted to molar concentrations using a fluorescein standard curve (300–2.3 nM), whose fluorescence was measured simultaneously. The initial rates of the enzyme-catalyzed reactions were measured in triplicate and plotted versus fluorogenic substrate concentration. […] (A) Activation of fluorogenic ester substrates by MmLipN. Each of the substrates is composed of diacyloxymethyl ether fluorescein with varying R-groups. The differing R-groups have been organized into classes and colored based on chemical functionality. All of the substrates were synthesized as described previously.[38],[43] Substrates 6, 10–11, 14–15, 20, 23–30, and 33 were newly synthesized for this characterization of MmLipN. Detailed synthetic characterization is provided in the Supporting Information. (B) Global comparison of the catalytic specificity (kcat/KM) of MmLipN against each of the 33 substrates with ester classes labeled. Catalytic efficiency values (kcat/Km) are given ± SD based on at least three independent kinetic replicates. (C, D) Kinetic activity of MmLipN against high-activity ester substrates 1 (black circles), 7 (blue squares), and 20 (red diamonds) and low-activity ester substrates 12 (green circles), 16 (red squares), 27 (purple diamonds), and 31 (orange squares). Low- and high-activity substrates display classic Michaelis–Menten kinetics with MmLipN and activity above background hydrolysis rates. Traces colored based on ester classification from (A, B). All measurements were completed in at least triplicate and shown ± SD.

Substrate in series [2]: COCCOCCC(=O)OCOc1ccc2c(c1)Oc1cc(OCOC(=O)CCOCCOC)ccc1C21OC(=O)c2ccccc21
How it is done:
as §1

Substrate in series [3]: CC1(C)CC1C(=O)OCOc1ccc2c(c1)Oc1cc(OCOC(=O)C3CC3(C)C)ccc1C21OC(=O)c2ccccc21
As to the method:
as §1

Substrate in series [4]: CC(C)C(=O)OCOc1ccc2c(c1)Oc1cc(OCOC(=O)C(C)C)ccc1C21OC(=O)c2ccccc21
How it is done: as §1

Substrate in series [5]: O=C1OC2(c3ccc(OCOC(=O)C4(c5ccccn5)CC4)cc3Oc3cc(OCOC(=O)C4(c5ccccn5)CC4)ccc32)c2ccccc21
How it is done: as §1

In general, Km refers to the concentration of substrate that gives half-maximal velocity. For orientation: kcat means the maximal rate divided by the concentration of active sites. By kcat/Km is commonly meant the second-order rate constant that governs catalysis at low substrate concentration.

B1: MmLipN (LipN from M. marinum) (Mycobacterium marinum M) (protein)
chain: MTNSLPGETDLHPETVHATMSWLSRVQNTVTVVGAKVIPWVPDVAKRLITRGRSVIIDGNTLDPALQLMLSGMRVVGLDGLVIDDDLAASRAHMREAMLGFPGPQIHVDVEELTLPGPAGDISARHYRPPGDAAAPLLVFYHGGGWALGDLDTHDAVCRLTCRDAGIHVLAIDYRLSPEDRAPAAIDDAFAAFEWAHAHAAELGALPGRVAVGGDSAGGNLAAVVSQLARDSGGPAPIFQWLIYPRTDFAGRTRSASLFARGFLLTKRDIDWFHSQYLKGSGIEPTDPRVSPLRAESLAGLAPALIAVAGFDPLRDEGENYATALRAAGTPVDLRAMGSLTHGFLNLFPLGGGCAAATSELISALRAHLTRV
notes: E. coli LOBSTR (DE3); Ni-NTA
B1: the Km in series [1] worked out at 6.2 ± 0.1 µM; in series [2], 21 ± 4 µM; in series [3], 1.7 ± 1.1 µM; in series [4], 9.5 ± 2.2 µM; in series [5] it was 0.049 ± 0.027 µM. In addition, the kcat came to 0.062 ± 0.029 s⁻¹ in series [1]; 0.0005 ± 0.0004 s⁻¹ in series [2]; 0.0011 ± 0.0018 s⁻¹ in series [3]; 0.017 ± 0.014 s⁻¹ in series [4]; 2.6e-05 ± 2e-05 s⁻¹ in series [5]. Further, the kcat/Km in series [1] came out at 10000 ± 5000 M⁻¹ s⁻¹; in series [2] it was 26 ± 11 M⁻¹ s⁻¹; in series [3] it was 660 ± 590 M⁻¹ s⁻¹; in series [4], 1800 ± 800 M⁻¹ s⁻¹; in series [5] it was 530 ± 250 M⁻¹ s⁻¹.
